Assay results taken from patent CN111018973A.

Tests used:
[1] = molecular target: cTnI质控品重组抗原 (human) (UniProt P19429); assay: indirect ELISA, cTnI coated at 1 ug/ml, antibody 1.6 ng/ml, goat anti-mouse IgG-HRP
[2] = molecular target: cTnI质控品重组抗原 (human) (UniProt P19429); assay: indirect ELISA, cTnI coated at 1 ug/ml, antibody 8 ng/ml, goat anti-mouse IgG-HRP
[3] = molecular target: cTnI质控品重组抗原 (human) (UniProt P19429); assay: indirect ELISA, cTnI coated at 1 ug/ml, antibody 40 ng/ml, goat anti-mouse IgG-HRP
[4] = molecular target: cTnI质控品重组抗原 (human) (UniProt P19429); assay: indirect ELISA, cTnI coated at 1 ug/ml, antibody 0.32 ng/ml, goat anti-mouse IgG-HRP
[5] = molecular target: cTnI质控品重组抗原 (human) (UniProt P19429); assay: indirect ELISA, cTnI coated at 1 ug/ml, antibody 0 ng/ml (blank, background), goat anti-mouse IgG-HRP
[6] = molecular target: cTnI质控品重组抗原 (human) (UniProt P19429); assay: indirect ELISA, cTnI coated at 1 ug/ml, antibody 1000 ng/ml, goat anti-mouse IgG-HRP
[7] = molecular target: cTnI质控品重组抗原 (human) (UniProt P19429); assay: indirect ELISA, cTnI coated at 1 ug/ml, antibody 200 ng/ml, goat anti-mouse IgG-HRP

Sequence of UniProt P19429 (P19429 whole entry): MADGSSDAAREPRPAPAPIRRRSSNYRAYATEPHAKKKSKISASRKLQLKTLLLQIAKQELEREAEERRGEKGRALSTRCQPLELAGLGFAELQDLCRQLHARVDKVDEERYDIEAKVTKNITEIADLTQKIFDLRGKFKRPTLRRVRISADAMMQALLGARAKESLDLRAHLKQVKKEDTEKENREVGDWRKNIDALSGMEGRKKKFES

B1: Anti-cTnI 8B6 重组抗体 (WT) (antibody, V domains shown)
VH: EVQLQQSGAELVKPGASVKLSCTASGFNIRDYYMHWMKQRTEQGLDWIGRIDPEEGETKYPPEFQGKATITADTSSNTAYLQLSTLTSEDTAVYYCARYYTSYIPFVYWGQGTLVTASA
VL: DVVMTQTPLSLSVSLGDQASISCRSTQSLLYSQRHTFLHWYLQKPGQSPKLLIFKISNKFSGVPDRFSGSGSGTDFTLKISRVEAEDLGVYFCSNSTHLPYTFGSGTKLEIKR
**Q.** With B1 as the binder, how does the OD值 (450 nm, 参考630 nm) [1] read?
**A.** Its OD值 (450 nm, 参考630 nm) is 0.227 OD.

**Q.** What about the OD值 (450 nm, 参考630 nm) [2] of the same binder?
**A.** The OD值 (450 nm, 参考630 nm) was 1.47 OD.

**Q.** What about the OD值 (450 nm, 参考630 nm) [3] of the same binder?
**A.** The OD值 (450 nm, 参考630 nm) was 1.85 OD.

**Q.** And the OD值 (450 nm, 参考630 nm) [4]?
**A.** Its OD值 (450 nm, 参考630 nm) is 0.086 OD.

**Q.** And the OD值 (450 nm, 参考630 nm) [5]?
**A.** The OD值 (450 nm, 参考630 nm) was 0.062 OD.

**Q.** What about the OD值 (450 nm, 参考630 nm) [6] of the same binder?
**A.** Its OD值 (450 nm, 参考630 nm) is 2.03 OD.

**Q.** What about the OD值 (450 nm, 参考630 nm) [7] of the same binder?
**A.** Its OD值 (450 nm, 参考630 nm) is 1.91 OD.
